These results are taken from US20240390531A1 (IMAGINAB, published 2024).

By Kd is commonly meant the constant that tells how readily two partners part at equilibrium. The koff is the rate constant with which the complex falls apart. The low end stands for slow dissociation, the high end for fast dissociation. In general, kon refers to the second-order rate constant of association. High values mean fast association, low ones slow association.

Positions count from the first letter of the chain named.

Test [1] deals with T1, purified human FAP antigen (human, UniProt Q12884 26-760, limits assumed). The test is described as follows: ELISA, plate coated with purified human FAP antigen (FIG. 56D-56E). The method, then: (§1) Binding kinetics of the novel antigen binding constructs to a purified human FAP antigen was assessed using ELISA. For this assay, a 96 well ELISA plate was coated with the human-FAP antigen diluted to a concentration of 2 mg/mL in coating buffer (0.05M sodium carbonate-bicarbonate buffer, pH 9.6). 100 μl of this coating solution was added to each well in the plate and incubate at 4° C. overnight. The plate was washed 3 times with 300 μl per well of washing buffer (PBS with 0.05% Tween-20). After the last wash, the plate was blocked by adding to each well 200 μl of blocking buffer (PBS with 1% BSA) warmed to room temperature. The plate was then incubated at room temperature for 1 hour under gentle agitation. After blocking, the plate was washed 3 times with 300 μl per well of washing buffer. Dilution samples for each minibody were created by making 2.5× dilutions from a starting sample at 100 ng/mL, or 250 ng/mL, or 1000 ng/mL or 3000 ng/mL in 100 μL sample buffer (PBS with 1% BSA). The dilution samples were transferred to the assay plate and incubated at room temperature for 1 hour under gentle agitation. The plate was then washed 3 times with 300 μl per well of washing buffer.
(§2) Detection was performed by adding 100 μl of HRP labeled detection secondary antibody at an appropriate dilution and incubating the plate at room temperature for 1 hour under gentle agitation. The plate was then washed 3 times with 300 μl per well of washing buffer. For color development, 100 μl of TMB substrate regent, pre-warmed to room temperature, was added to the plate and incubated in the dark at room temperature for 15 min. The reaction was then stopped by adding 100 μl of 650 nm stop solution to the plate and mixed for 1 min at room temperature under gentle agitation. The plate is recorded by reading OD at 650 nm in a plate reader within 20 min after terminating the reaction.
In general terms: In an ELISA, binding on a coated surface is turned into a signal by an enzyme label.

Test [2] deals with T1, purified human FAP antigen. The test is described as follows: ELISA, plate coated with purified human FAP antigen (FIG. 91A). The method, then: as §1
The next test concerns the target T2, human FAP on cells (human, UniProt Q12884 1-760).
T2 construct: whole, on cells; The cell line is named under assay; also called HT1080 human FAP cells; HT1080-hFAP cells
Put plainly: flow cytometry on U87-MG glioblastoma cells (FIG. 58B). The method, then:
As disclosed herein, the binding of constructs to cellular targets was assessed using flow cytometry. Stock of 2.5× serial dilution of minibodies were created starting from a concentration of 100 nM in […] FACS buffer (PBS 2% FBS). Cells were added to a Corning V-bottom polypropylene cell culture plate at 200,000 cells/well. The cells were centrifuged at 100 rpm for 3 minutes and the supernatant discarded. The minibody dilution series were transferred to the plate containing cell pellets and incubated for 1 hr at 4° C. The plate was then washed 3 times with FACS buffer at 200 µl/well, discarding supernatant after each wash by centrifugation at 1000 rpm. 50 µl/well of detection antibody R&D AlexaFluor-647 Goat anti Human (H+L) was added at a 1:100 dilution in FACS buffer and incubated at 4° C. 1 hr. The plate was washed 3 times with FACS buffer at 200 µl/well, discarding supernatant after each wash by centrifuging at 1000 rpm. Cells were then fixed by adding 100 µl of 1% paraformaldehyde in PBS and incubating at room temperature for 15 minutes. 100 µl of PBS were added to each well and the plate was analyzed by flow cytometry using the allophycocyanin fluorescence setting.
Background: In flow cytometry, cells or beads pass a laser one at a time.

In test [3] the target is T1, purified human FAP antigen. Put plainly: ELISA, plate coated with purified human FAP antigen (FIG. 56A-56C). As for the experimental part: as §1, §2
The target of a further test is FAP (UniProt Q12884 26-760, limits assumed). The test is described as follows: binding kinetics, method not stated (FIG. 42A).
Test [4] concerns the target T1, purified human FAP antigen. The test is described as follows: ELISA, plate coated with purified human FAP antigen (FIG. 91F). The method, then:
as §1

B1: IAB16C3-21 (other)
chain: DIVMTQSPDSLAVSLGERATINCKSSQSLLYSRNQKNYLAWYQQKPGQPPKLLIFWASTRESGVPDRFSGSGFGTDFTLTISSLQAEDVAVYYCQQYFSYPLTFGQGTKVEIKGGGSGGGGQVQLVQSGAEVKKPGASVKVSCKTSRYTFTEYTIHWVRQAPGQRLEWIGGINPNNGIPNYNQKFKGRVTITVDTSASTAYMELSSLRSEDTAVYYCARRRIAYGYDEGHAMDYWGQGTLVTVSSGGCPPCPPC
Consider B1, for which the Kd in test [1] was approximately 1 nM.

B2: IAB16M2-55 (other)
chain: QVQLVQSGAEVKKPGASVKVSCKASGYTFTSYVMHWVRQAPGQGLEWMGYINPHNDGTKYAQKFQGRVTMTRDTSTSTVYMELSSLRSEDTAVYYCARWGIYYGYGAWFAYWGQGTLVTVSSGSTSGGGSGGGSGGGGSSDIQMTQSPSSLSASVGDRVTITCKASQNVGTYVAWFQQKPGKAPKSLIYSASNRYSGVPSRFSGSGSGTDFTLTISSLQPEDFATYYCQQYNTYPYTFGQGTKLEIKEPKSSDKTHTCPPCPPCGGGSSGGGSGGQPREPQVYTLPPSREEMTKNQVSLTCLVKGFYPSDIAVEWESNGQPENNYKTTPPVLDSDGSFFLYSKLTVDKSRWQQGNVFSCSVMHEALHNHYTQKSLSLSPG
For B2, the Kd in test [2] is approximately 1 nM.

B3: IAB16M2-29 (other)
chain: QVQLVQSGAEVKKPGASVKVSCKASGYTFTEYTIHWVRQAPGQRLEWIGGINPNNGIPNYNQKFKGRVTITVDTSASTAYMELSSLRSEDTAVYYCARRRIAYGYDEGHAMDYWGQGTLVTVSSGSTSGGGSGGGSGGGGSSDIVMTQSPDSLAVSLGERATINCKSSQSLLYSRNQKNYLAWYQQKPGQPPKLLIFWASTRESGVPDRFSGSGSGTDFTLTISSLQAEDFAVYYCQQYFSYPLTFGQGTKVEIKEPKSSDKTHTCPPCPPCGGGSSGGGSGGQPREPQVYTLPPSREEMTKNQVSLTCLVKGFYPSDIAVEWESNGQPENNYKTTPPVLDSDGSFFLYSKLTVDKSRWQQGNVFSCSVMHEALHNHYTQKSLSLSPG
B3 had a Kd in test [1] of approximately 1 nM.

B4: IAB16M2-13 (other)
chain: B3 chain with A24T, G26R, S215F, F231V
notes: also called Sibrotuzumab minibody
On to B4, for which the Kd (in the test with human FAP on cells; in test [3]) was approximately 0.1 nM each time.

B5: IAB16C1-20 (other)
chain: DIVMTQSPDSLAVSLGERATINCKSSQSLLYSRNQKNYLAWYQQKPGQPPKLLIFWASTRESGVPDRFSGSGFGTDFTLTISSLQAEDVAVYYCQQYFSYPLTFGQGTKVEIKSGGGGQVQLVQSGAEVKKPGASVKVSCKTSRYTFTEYTIHWVRQAPGQRLEWIGGINPNNGIPNYNQKFKGRVTITVDTSASTAYMELSSLRSEDTAVYYCARRRIAYGYDEGHAMDYWGQGTLVTVSSGGCPPCPPC
Molecule B5 came in with a Kd in test [1] of approximately 1 nM.

B6: IAB16C1-38 (other)
chain: B5 chain with F73S, V89F, F98Y, T142A, R144G
In test [1], B6 returned a Kd of approximately 1 nM.

B7: IAB16M2-9 (other)
chain: EVQLLESGGGLVQPGGSLRLSCAASGFTFSSYAMSWVRQAPGKGLEWVSAIIGSGASTYYADSVKGRFTISRDNSKNTLYLQMNSLRAEDTAVYYCAKGWFGGFNYWGQGTLVTVSSGSTSGGGSGGGSGGGGSSEIVLTQSPGTLSLSPGERATLSCRASQSVTSSYLAWYQQKPGQAPRLLINVGSRRATGIPDRFSGSGSGTDFTLTISRLEPEDFAVYYCQQGIMLPPTFGQGTKVEIKEPKSSDKTHTCPPCPPCGGGSSGGGSGGQPREPQVYTLPPSREEMTKNQVSLTCLVKGFYPSDIAVEWESNGQPENNYKTTPPVLDSDGSFFLYSKLTVDKSRWQQGNVFSCSVMHEALHNHYTQKSLSLSPG
For the molecule B7, the Kd (in the test with human FAP on cells; in test [3]) was approximately 0.1 nM in each case.

B8: 9A2 (other)
chain 1: EVQLQQSGPELVKPGASVKMSCKASGYTFTSYVMHWLKQKPGQGLEWIGYINPHNDGTKYNEKFKGKATLTSDKSSSTAYMELSSLTSEDSAVYYCARWGIYYGYGAWFAYWGQGTLVTVSA
chain 2: DIVMTQSQKFMSTSVGDRVSVTCKASQNVGTYVAWYQQKPGQSPKALIYSASNRYSGVPDRFTGSGSGTDFTLTISNVQSEDLAEYFCQQYNTYPYTFGGGTKLEIK
notes: also called murine 9A2 construct
B8 gave a Kd in test [2] of approximately 1 nM.

B9: IAB16M1-12 (other)
chain: DIVMTQSPDSLAVSLGERATINCKSSQSLLYSRNQKNYLAWYQQKPGQPPKLLIFWASTRESGVPDRFSGSGFGTDFTLTISSLQAEDVAVYYCQQYFSYPLTFGQGTKVEIKGSTSGGGSGGGSGGGGSSQVQLVQSGAEVKKPGASVKVSCKTSRYTFTEYTIHWVRQAPGQRLEWIGGINPNNGIPNYNQKFKGRVTITVDTSASTAYMELSSLRSEDTAVYYCARRRIAYGYDEGHAMDYWGQGTLVTVSSEPKSSDKTHTCPPCPPCGGGSSGGGSGGQPREPQVYTLPPSREEMTKNQVSLTCLVKGFYPSDIAVEWESNGQPENNYKTTPPVLDSDGSFFLYSKLTVDKSRWQQGNVFSCSVMHEALHNHYTQKSLSLSPG
notes: also called Sibrotuzumab minibody; the control
In the test with FAP, B9 showed a Kd of 3.34 nM, a koff of 0.00257 s⁻¹ and a kon of 769000 M⁻¹ s⁻¹. In the test with human FAP on cells, this molecule yielded a Kd of approximately 0.1 nM. This molecule also registered a Kd in test [3] of approximately 0.1 nM.

B10: IAB16M1-8 (other)
chain: EIVLTQSPGTLSLSPGERATLSCRASQSVTSSYLAWYQQKPGQAPRLLINVGSRRATGIPDRFSGSGSGTDFTLTISRLEPEDFAVYYCQQGIMLPPTFGQGTKVEIKGSTSGGGSGGGSGGGGSSEVQLLESGGGLVQPGGSLRLSCAASGFTFSSYAMSWVRQAPGKGLEWVSAIIGSGASTYYADSVKGRFTISRDNSKNTLYLQMNSLRAEDTAVYYCAKGWFGGFNYWGQGTLVTVSSEPKSSDKTHTCPPCPPCGGGSSGGGSGGQPREPQVYTLPPSREEMTKNQVSLTCLVKGFYPSDIAVEWESNGQPENNYKTTPPVLDSDGSFFLYSKLTVDKSRWQQGNVFSCSVMHEALHNHYTQKSLSLSPG
On to B10, for which the Kd (in the test with human FAP on cells; in test [3]) was approximately 0.1 nM throughout.

B11: IAB16M1-54 (other)
chain: DIQMTQSPSSLSASVGDRVTITCKASQNVGTYVAWFQQKPGKAPKSLIYSASNRYSGVPSRFSGSGSGTDFTLTISSLQPEDFATYYCQQYNTYPYTFGQGTKLEIKGSTSGGGSGGGSGGGGSSQVQLVQSGAEVKKPGASVKVSCKASGYTFTSYVMHWVRQAPGQGLEWMGYINPHNDGTKYAQKFQGRVTMTRDTSTSTVYMELSSLRSEDTAVYYCARWGIYYGYGAWFAYWGQGTLVTVSSEPKSSDKTHTCPPCPPCGGGSSGGGSGGQPREPQVYTLPPSREEMTKNQVSLTCLVKGFYPSDIAVEWESNGQPENNYKTTPPVLDSDGSFFLYSKLTVDKSRWQQGNVFSCSVMHEALHNHYTQKSLSLSPG
B11: the Kd in test [2] is approximately 1 nM.

B12: IAB16M1-49 (other)
chain: DIQMTQSPSSLSASVGDRVTITCKASQDVGIAVAWYQQKPGKAPKLLIYWASTRHTGVPSRFSGSGSGTDFTFTISSLQPEDIATYYCQQYSRYPYTFGQGTKLEIKGSTSGGGSGGGSGGGGSSDVQLVESGGGLVKPGGSLRLSCTVSGFTFSSYTMSWVRQAPGKGLEWVSTISSGGSYTYYADSVKGRFTISRDNAKNSLYLQMNSLRAEDTAVYYCTRDQVGYAMDYWGQGTLVTVSSEPKSSDKTHTCPPCPPCGGGSSGGGSGGQPREPQVYTLPPSREEMTKNQVSLTCLVKGFYPSDIAVEWESNGQPENNYKTTPPVLDSDGSFFLYSKLTVDKSRWQQGNVFSCSVMHEALHNHYTQKSLSLSPG
B12: the Kd in test [4] was approximately 1 nM.
